The text below walks through data of patent US20110159013A1 (MERCK, published 2011).

Test [1] has as its target amyloid β1-42 peptide (Aβ1-42). The test is described as follows: cell-based or functional assay.
In test [2] the target is ADDL fibril preparation (Aβ1-42 fibrils made in 10 mM hydrochloric acid). The test is described as follows: solution equilibrium titration; free IgG by ELISA; GraFit.
The target of test [3] is T1, amyloid beta (1-40) peptide.
T1 construct: Residues 1-40 counted on the Aβ1-42 entry; used as monomer-like control; also called Aβ1-40; Aβ1-40 monomer
The description is as above.

The target in test [4] is T2, Aβ-derived diffusible ligands (synthetic ADDLs), soluble oligomers of amyloid β1-42.
T2 construct: number of copies varies (trimer, tetramer, 12-24 mer)
Described as above.

For test [5], the target named is T3, higher molecular weight oligomers of the ADDL preparation.
T3 construct: also called higher molecular weight material (12-24 mer)
The test is described as follows: western immunoblot of ADDLs after SDS-PAGE (column DENATURED SPECIES IDENTIFIED: HMW ADDLs). For orientation: A western blot detects proteins with antibodies after separation by electrophoresis.

Test [6] addresses T4, SEC Peak 1 fraction of ADDLs (large aggregates, >50 kDa).
T4 construct: Size exclusion fraction of synthetic ADDLs; monomer, trimer, tetramer and 12-24 mers on SDS-PAGE
The test is described as follows: sandwich ELISA with polyclonal M90 as capture antibody; signal on SEC Peak 1 divided by signal on SEC Peak 2 of ADDLs. On the technique in general: ELISA stands for enzyme-linked immunosorbent assay.

The target of test [7] is T5, trimers of ADDLs (multi-dimensional conformation of soluble amyloid β1-42 oligomers, as defined by SDS-PAGE) (UniProt P05067 672-713).
T5 construct: domain: amyloid β1-42; It is a species within the ADDL preparation
In words: recognition of ADDL species defined by SDS-PAGE (see FIG. 3).

Test [8] addresses T6, tetramers of ADDLs (multi-dimensional conformation of soluble amyloid β1-42 oligomers, as defined by SDS-PAGE) (UniProt P05067 672-713).
T6 construct: domain: amyloid β1-42; It is a species within the ADDL preparation
The description is as above.

B1: murine anti-ADDL monoclonal antibody 2B4 (antibody, mouse IgG2b, V domains shown)
VH: not shown
VL: DVVMTQTPLSLPVSLGDQASISCRSSQSLVHSNGNTYLHWYLQKPGQSPKLLIYKVSNRFFGVPDRFSGSGSGTDFTLKISRVEAEDLGVYFCSQTTYVPLTFGAGTKLELK
The Kd is a measure of binding affinity in units of concentration. Low values mean a tighter complex, high ones a looser complex. For the molecule B1, in test [1], the “IC50 (read off the curve)” value was about 100 nM. Besides, the equilibrium dissociation constant (Kd) in test [2] was 10.5 nM; in test [3], 27.6 nM; in test [4], 2.09 nM.

B2: murine anti-ADDL monoclonal antibody 2A10 (antibody, mouse IgG1, V domains shown)
VH: QVTLKESGPGILKPSQTLSLTCSFSGFSLSTSGMGVGWIRQPSGKGLEWLAHIWWDDDKYYNPSLKSQLTISKDTSRNQVFLKITSVDTADTATYYCARRSISTLVPEDYFDYWGQGTTLTVSS
VL: DVLMTQTPLSLPVSLGDQASISCRSSQSIVHSNGNTYLEWYLQKPGQSPKLLIYKVSNRFSGVPDRFSGSGSGTDFTLKISRVEAEDLGVYYCFQGSHVPLTFGAGTKLELK
The molecule B2 showed a dissociation constant Kd in test [2] of 6.72 nM. The binding result in test [5], in test [7] and in test [8] was “binds” each time. Also, in test [6], the “Peak 1/Peak 2 Ratio (ELISA)” value stood at 20.
